# Target: SARS-CoV-2 spike receptor-binding domain (RBD) (SARS-CoV-2, UniProt P0DTC2 319-541)
# Experiment: indirect ELISA, RBD coated on plate, 4PL fit
row,Binder,ELISA affinity
1,Nb62 (VHH) VHH: HVQLVESGGGLVQAGGSLRLTCAASGRTFSSSTMDMGWFRQAPGKEREFVAVDAWNDGRTYYADSVKGRFTISRDNAKNTLYLQMNSLKPGDTAVYYCHAVDVSVGGDYWGQGTQVTVSS,85.7 nM
2,Nb37 (VHH) VHH: QVQLVESGGGLVQTGGSLRLSCAASGRTFSNYVMGWFRQAPGKEREFVSSIEWNSENTFYANSVKGRFTISRDNAKNTVYLQMNSLKAEDTAVYYCAADRGSSYYYTRASEYTYWGQGTQVTVSS,0.38 nM
3,Nb92 (VHH) VHH: HVQLVESGGGLVQAGGSLRLSCAASGRTFSAYGMGWFRQAPGKEREFVAGIARSGSEYYGDSVKGRFTISRDNAKNTVYLQMASLKAEDTGVYYCAADPTILYHALSQRTQNYRYWGPGTQVTVSS,4.92 nM
4,Nb68 (VHH) VHH: QVQLVESGGGLVQAGGSLRLSCAASGGTLRSYNMGWFRQGPGKEREFVAAISWTGLGTYYGDSVKGRFTISRDVIKNTLYLQMDSLKPEDTAIYYCAADSSTSRLHSAGSDYRYWGQGTQVTVSS,6.11 nM
5,Nb58 (VHH) VHH: QVQLVESGGGLVQAGGSLRLSCAASGRDFSSTVMGWFRQAPGKERELVAWMTVTYDITYYADSVKGRFTISKDNAKNTVYLQANSLKPDDTAVYYCASGALRVGSFSPDYWGQGTQVTVSS,2.68 nM
6,Nb15 (VHH) VHH: EVQLVESGGGLVAAGGSLRLSCVPSTNIFSANAMGWYRQAPGKQRELVASITSGGNTNYADSVKGRFTISRDNADTVILQMNSLKPEDTAVYYCKGTAYSTTYNSVRDYWGQGTQVTVSS,0.47 nM
7,Nb3 (VHH) VHH: HVQLVESGGGLVQAGGSLRLSCVASGSGFEPNAMGWYRQAPGKQRELVAGITSGGNTNYADSVKGRFTISRDNVKNTVYLQMNSLKPEDTAVYYCNAVAPRINPRGSPTNYWGQGTQVTVSS,0.48 nM
8,Nb4 (VHH) VHH: QVQLVESGGGLVQAGGSLRLSCVASGSGFEPNAMGWYRQAPGKQRELVAGITSGGNANYADSVKGRFTISRDNVKNTVYLQMNSLKPEDTAVYYCNAVGPRFNPRGSPTNYWGQGTQVTVSS,0.67 nM
9,Nb18 (VHH) VHH: DVQLVESGGGLVQAGGSLRLSCAASGRTFSSYNVGWFRQAPGKEREFVAFIRWSGTSTYYADSVKGRFTISRDNAKNTVYLQMNSLKPEDTAVYYCAATSRTMIHTSQAMPINWDYWGQGTQVTVSS,0.57 nM
10,Nb84 (VHH) VHH: DVQLVESGGGLVQAGGSLRLSCAASGRTFSSYSMGWFRQAPGKEREFVAFIRWSGTSTYYADSVKGRFTISRDNAKNTVYLQMNSLKPDDTAVYYCAASSRTMNTISQTMRINWDYWGQGTQVTVSS,0.53 nM
11,Nb100 (VHH) VHH: EVQLVESGGGLVQAGGSLRLSCAASGLTFSSYNMGWFRQAPGKEREFVAFIRWSGTSTYYADSVKGRFTISRDTAKNTVYLQMNSLKLEDTAVYYCAATSRTMIHTSQTMRINWDYWGQGTQVTVSS,1.04 nM
12,Nb93 (VHH) VHH: EVQLVESGGGLVQPGGSLRLSCAASGFTFSSYAMSWVRQAPGKGREWVAGITPGSGTFYADSVKGRFTISRDNAKNTLSLEINSLKPEDTALYYCAKCRQEFSWDFSSRDPDDFDYWGQGTQVTVSS,1.15 nM
13,Nb42 (VHH) VHH: HVQLVESGGGLVQAGESLRLSCVASGSIFSINAMGWFRQAPGKQRELVASISNIGTTIYAESVKGRFTISRDNAKNTADLQMNSLKPEDTAIYYCNLRQGCSYNGCDEYWGQGTQVTVSS,0.66 nM
14,Nb39 (VHH) VHH: QVQLVESGGGLVQAGGSLRLSCAASGRTFRFSAIDWYRQAPGQQREFVASISTSGRISYGHFVKGRFTISRDNAKNTMYLQMNSLKPEDTAVYYCHLAQPDVFGGGDYWGQGTQVTVSS,1.49 nM
15,Nb80 (VHH) VHH: HVQLVESGGGLVQPGGSLRLSCAASGNFFLINVMSWWRQAPGNEHELHELVATITSDGRTNYGDAVQGRFTISRDNAKNTLYLQMNSLKPEDTAVYYCYAQGQGNREYWGQGTQVTVSS,5.09 nM
16,Nb2 (VHH) VHH: QVQLVESGGGLVQAGGSLRLSCAASGRTFSIYNMGWFRQAPGKEREFVIHMNWSNGNTATAASVKDRFTISRDNAKNTVYLQMSSLKPEDTAVYYCHATTNDYDYWGQGTQVTVSS,4.82 nM
17,Nb76 (VHH) VHH: DVQLVESGGGLVQAGGSLRLSCAVSGRTFSISTMGWFRQAPGKERLFVAGITWHDGSTNYADSVKGRFTISRDNAKNTVYLQMNSLKPEDTALYYCAARKSINYVQEYDYWGRGTQVTVSS,0.17 nM

row,Binder,ELISA affinity
1,Nb10 (VHH) VHH: DVQLVESGGGLVQAGGSLKLSCTASESTFNFNHIDWYRQAPGKQRESVAVITNTDVTNYADSVKGRFTISRDNAKNTVYLQMNSLKPEDTAVYLCNAWRFGPTGVKVDYWGQGTQVTVSS,0.24 nM
2,Nb46 (VHH) VHH: QVQLVESGGGLVQAGGSLRLSCAVSGSTLGINAIGWYRQPPGKQRELVASISSLGTTLYAESVKGRFAISRDNAKNTGYLQMNSLKPDDTAVYYCNMRTPYMRDYWGQGTQVTVSS,25.9 nM
3,Nb60 (VHH) VHH: HVQLVESGGGLVQAGDSLRLSCAASERTNINYAMGWFRQAPGKERDFVAAIGWNGSIIKYAESVKGRFTISRDDAKNTVSLQMNSLKPEDTAVYYCAARIGSIANLQPREYEFAYWGQGTQVTVSS,138 nM
4,Nb12 (VHH) VHH: HVQLVESGGGLVQAGGSLRLTCAASGGTFSTSTMDMGWFRQAPGKEREFVAVDSWNDGRAYYADSVKGRFTISRDSAKTTLYLQMNSLKPEDTAVYYCAARTERGVYDYWGRGTQVTVSS,539 nM
5,Nb91 (VHH) VHH: HVQLVESGGGLVQPGGSLRLSCAASGLTLNDYAIGWFRQAPGKEREGVSCISSSDGTTYYADSVKGRFTISRDNAKNTVYLQMNSLKPEDTAVYYCATDIAPFYCSWPLRTRLVEYWGQGTQVTVSS,1.28 nM
6,Nb6 (VHH) VHH: HVQLVESGGGLVQAGGSLRLSCAASGRTFSTHATGWFRQAPGKEREFLATSVWLDDISRDSTYYAESVKGRFSISRDNAKDTVYLQMNSLKPEDTAVYYCAVKQRVGPGIMSAPTYDYWGQGTQVTVSS,0.57 nM
7,Nb41 (VHH) VHH: DVQLVESGGGLVQAGGSLRLSCAASGFTFSNYVMYWGRQAPGKGREWVSGIDSDGSDTAYASSVKGRFTISRDNAKKTLYLQMNDLKPEDTALYYCVKSKDRYGSPWTRSEFEDYWGQGTQVTVSS,0.2 nM
8,Nb24 (VHH) VHH: QVQLVESGGGLVQAGGSLRLTCAASGGTFSTSTMDMGWFRQAPGKEREFVALDSWNGGRTYYADSVKGRFTISRDNAKNTLYLQMNSLKPEDTAVYYCAADTYSNYEKDDSWGYWGQGTQVTVSS,0.77 nM
9,Nb29 (VHH) VHH: HVQLVESGGGLVQAGGSLRLTCAASGGTFSTSTMDMGWFRQAPGKEREFVAVDSWNDGRAYYADSVKGRFTISRDNAKNTLYLQMNSLKPEDTAVYYCAAETYSNYEKAYSWGYWGQGTQVTVSS,1.25 nM
10,Nb26 (VHH) VHH: HVQLVESGGGLVQAGGSLRLTCAASGRTFSISTMDMGWFRQAPGKEREFVAADAWNDGRTYYADSVKGRFTISRDNAKNTLYLQMNSLKPEDTAVYYCTADTYSNYKKDDSWGYWGQGTQVTVSS,0.92 nM
11,Nb32 (VHH) VHH: DVQLVESGGGLVQAGGSLRLSCAASGRTFSSDTMDMGWFRQAPGKEREFVALHSWNGGKTYYADSVKGRFTISRDNAKNTLYLQMNNLKPEDTAVYYCAAETYTLYEKDSSWGYWGQGTQVTVSS,2.17 nM
12,Nb90 (VHH) VHH: HVQLVESGGGLVQAGGSLRLSCAVSGRTVSSYVMGWFRQAPGKEREFVAGIGRTGMTITADSVKGRFTISRDNAKNLVYLQMNSLKSEDTAVYWCAAGVRDFAPRIDSYDYWGQGTQVTVSS,4.03 nM
13,Nb43 (VHH) VHH: EVQLVESGGGLVQAGGSLRLTCAASGRTFSSSTMDMGWFRQAPGKEREFVAVDAWNDGRTYYADSVKGRFTISRDNAKNTLYLQMNSLKPEDTAIYYCNLRQGCSYNGCDEYWGQGTQVTVSS,664 nM
14,Nb63 (VHH) VHH: QVQLVESGGGLVQAGGSLRLSCVASGSGFEPNAMGWYRQAPGKQRELVAGITSGGNANYADSVKGRFTISRDNVKNTVYLQMNSLKPEDTAVYYCQGPACSGSGCRNYWGQGTQVTVSS,0.84 nM
15,Nb55 (VHH) VHH: DVQLVESGGGLVQAGGSLRLSCAASGRTFGSTMAWFRQAPGKERDFVAAITWSADRISYADSVKGRFTISRDNDKNIVHLQMNSLKPEDTAVYVCAARASSNTYDDPRSFAFWGQGTQVTVSS,2.24 nM
16,Nb74 (VHH) VHH: HVQLVESGGGLVQAGGSLRLSCAASGRTFSSHAMAWFRQAPGKEREFVAGISWSGPYYVDSVKGRFTISTDNAKNTVYLQMNSLTPEDTAVYYCASSRGPNLYPHIGDVEYWGQGTQVTVSS,67.1 nM

# Reference: patent US20240043505A1 (UNIVERSITY OF PITTSBURGH OF THE COMMONWEALTH SYSTEM OF …, published 2024)
